The source of these data is US20210122826A1 (MIT, published 2021).

Assay [1] addresses T1, human CD161 (human, UniProt Q12918 1-225).
T1 construct: UniProt Q12918; also called hCD161; KLRB1
The assay can be described thus: flow, Jurkat, Ab titration.

Assay [2] deals with T2, cynomolgus CD161 (cynomolgus).
T2 construct: UniProt A0A2K5WYI1; also called cynoCD161
T2 chain: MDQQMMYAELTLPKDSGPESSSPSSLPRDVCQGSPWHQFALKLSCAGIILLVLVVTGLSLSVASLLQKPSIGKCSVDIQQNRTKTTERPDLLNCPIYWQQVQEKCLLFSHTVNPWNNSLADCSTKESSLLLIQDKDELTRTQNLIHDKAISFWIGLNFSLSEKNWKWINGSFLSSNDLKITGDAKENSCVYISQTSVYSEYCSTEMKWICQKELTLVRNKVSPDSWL
The experiment in a line: flow, Jurkat, Ab titration.

Assay [3] addresses T1, human CD161. The experiment in a line: flow, Jurkat, Ab titration. The procedure: (§1) To measure binding, Jurkat cells expressing hCD161 or cynoCD161 were incubated with 0.01 nM to either 0.1 μM or 0.3 μM anti-CD161 antibodies as listed in Table 12. Jurkat cells expressing cynoCD161 were prepared using the methods described in Example 7. Volumes were sufficiently large such that ligand was depleted less than 10%. Following a three-hour incubation on ice, cells were washed and stained with fluorescent anti-human secondary antibody. The cells were washed, and labeling of antibody binding was assessed by flow cytometry to determine the MFI as a function of anti-CD161 antibody concentration. Raw MFI (top panel) and MFI normalized to the maximum value in each dataset (bottom panel) are shown for binding to hCD161 (FIG. 7C) and to cynoCD161 (FIG. 7D).
The source holds these as a separate data set.

For assay [4], the target named is T2, cynomolgus CD161. The assay can be described thus: flow, Jurkat, Ab titration. On the procedure: as §1
For assay [5], the target named is T1, human CD161. The assay can be described thus: flow cytometry titration of soluble IgG on Jurkat hCD161+ cells, fluorescent secondary antibody, MFI against Ab concentration (log [M]). On the procedure:
as §1
In general terms: A flow cytometer gives signals particle by particle.

For the next assay, the target named is T3, Human KLRF1 (human, UniProt Q9NZS2 1-231).
T3 construct: also called hKLRF1
T3 sequence: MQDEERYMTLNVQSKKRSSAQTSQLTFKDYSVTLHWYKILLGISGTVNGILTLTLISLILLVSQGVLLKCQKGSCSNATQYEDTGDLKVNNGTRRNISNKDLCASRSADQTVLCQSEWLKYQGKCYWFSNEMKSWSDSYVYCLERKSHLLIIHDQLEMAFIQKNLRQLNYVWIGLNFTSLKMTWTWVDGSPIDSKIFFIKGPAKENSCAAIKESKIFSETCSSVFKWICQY
The experiment in a line: flow, Jurkat.

Another assay has as its target T4, Human KLRF2 (human, UniProt D3W0D1 1-207).
T4 construct: also called hKLRF2
T4 sequence: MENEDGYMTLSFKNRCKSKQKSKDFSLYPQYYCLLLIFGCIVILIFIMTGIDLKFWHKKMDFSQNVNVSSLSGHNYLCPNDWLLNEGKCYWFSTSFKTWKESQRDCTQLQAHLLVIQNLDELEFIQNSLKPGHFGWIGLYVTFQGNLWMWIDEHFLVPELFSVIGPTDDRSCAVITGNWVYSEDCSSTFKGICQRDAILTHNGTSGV
The experiment in a line: flow, Jurkat.

Assay [6] addresses T2, cynomolgus CD161. The experiment in a line: flow cytometry titration of soluble IgG on Jurkat cynoCD161+ cells, fluorescent secondary antibody, MFI against concentration (log [M]). The procedure:
as §1

Assay [7] has as its target T2, cynomolgus CD161. The assay can be described thus: flow, Jurkat.

B1: KW1.2.1 (antibody, V domains shown)
VH: EVQLVESGGGLVQPGGSLRLSCAASGSTFSSYAMSWVRQAPGKGLEWVSTISGSGGSTYYADSVKGRFTISRDNSRNTLYLQMNSLRAEDTAVYYCARGGLIPSGFDYWGQGTLVTVSS
VL: DIQMTQSPSSPSASVGDRVTITCRASQSISSYLNWYQQKPGKAPKLLIYAASSLLSGVPSRFSGSGSGTDFTLTISSLQPEDFATYYCQQTYSTPLTFGQGTKVEIK
With B1, the “fold binding vs HP-3G10” value with human CD161 [1] and with cynomolgus CD161 [2] was around 10 fold in each case. Also, the figures for the Kd with human CD161 [3] and with cynomolgus CD161 [4] were 0.233 nM and 0.247 nM, respectively. In addition, the “EC50 (read off the curve)” value with human CD161 [5] was around 0.2 nM. Besides, the binding result with Human KLRF1 and in the assay with Human KLRF2 was “no binding (tested: 100 nM)” throughout.

B2: KM12.2.3 (antibody, human IgG1, V domains shown)
VH: EVQLVESGGGLVQPGGSLRLSCAASGFTFSSYAMSWIRQAPGKGLEWVSAISGSGGSIYYADSVKGRFTISRDNSKNTLYLQMNSLRAEDTAVYYCARGYSDSYFYGPYYTFDYWGQGTLVTVSS
VL: DIQMTQSPSSLSASVGDRVTITCRASQGISSYLNWYQQKPGKAPKLLIYAASSLQSGVSSRFSGSGSGTDFTLTISSLQPEDFATYYCQQSYNTPLTFGQGTKVEIK
In the case of B2, the binding result with Human KLRF1 and in the assay with Human KLRF2 was “no binding (tested: 100 nM)” throughout.

B3: KW7.3.7 (antibody, V domains shown)
VH: EVQLVESGGGLVQPGGSLRLSCAASGFTFSSYAMSWVRQAPGKGLEWVSATSGSGGSTYYADSAKGRFTISRDNSKNTLYLQMNSLRAEDTAVYYCARGGYLPDAFDYWGRGTLVTVSS
VL: DIQMTQSPSSLSASVGDRVTITCWASQSISSYLNWYQQEPGKAPKLLIYAASSLQSGVPSRFSGSGSGTDFTLTISSLQPEDFATYYCQQTYSTPLTFGQGTKVEIK
In the case of B3, the binding result in the assay with Human KLRF1 and with Human KLRF2 was “no binding (tested: 100 nM)” throughout.

B4: KW7.2.2 (antibody, V domains shown)
VH: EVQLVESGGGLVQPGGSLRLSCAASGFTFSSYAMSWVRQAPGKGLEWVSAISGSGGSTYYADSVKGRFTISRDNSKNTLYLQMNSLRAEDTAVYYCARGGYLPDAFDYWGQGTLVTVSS
VL: DIQMTQSPSSLSASVGDRVTITCRASQSISSYLNWYQQKPGKAPRFLIYAASSLQSGVPSRFSGSGSGTDFTLTISSLQPEDFATYYCQQTYSTPLTFGQGTKVEIK
Consider B4, for which the “fold binding vs HP-3G10” value with human CD161 [1] and in the assay with cynomolgus CD161 [2] was around 10 fold in each case. In addition, the Kd with human CD161 [3] was 0.207 nM; with cynomolgus CD161 [4] it was 0.24 nM. For the same molecule, the “EC50 (read off the curve)” value with human CD161 [5] was around 0.2 nM. Further, the binding result with Human KLRF1 and in the assay with Human KLRF2 was “no binding (tested: 100 nM)” in each case.

B5: KW1.3.12 (antibody, human IgG1, V domains shown)
VH: EVQLVESGGGLVQPGGSLRLSCAASGFTFSSYAMSWVRQAPGKGLEWVSTISGSGGSTYYADSVKGRFTISRDNSRNTLYLQMNSLRAEDTAVYYCARGGLIPSGFDYWGQGTLVTVSS
VL: DIQMTQSPSSLSASVGDRVTITCRASQSISSYLNWYQQKPGKAPKLLIYAASSLLSGVPSRFSGSGSGTDFTLTISSLQPEDFATYYCQQTYSAPLTFGQGTKVEIK
For the molecule B5, the “fold binding vs HP-3G10” value with human CD161 [1] and with cynomolgus CD161 [2] was around 10 fold throughout. The Kd in the assay with human CD161 [3] stood at 0.249 nM; with cynomolgus CD161 [4], 0.274 nM. Moreover, the figures for the “EC50 (read off the curve)” value with human CD161 [5] and in the assay with cynomolgus CD161 [6] were around 0.4 nM and around 0.3 nM, respectively. Also, the binding result with Human KLRF1 and with Human KLRF2 was “no binding (tested: 100 nM)” each time.

B6: KW9.3.3 (antibody, V domains shown)
VH: EVQLVESGGGLVQPGGSLRLSCAASGFTFSSYAMSWVRQAPGKGLEWVSAISGSGGRTYYADSVKGRFTISRDNSKNTLYLQMNSLRAEDTAMYYCARGPGYMYLYGDSFFEYWGQGTLVTVSS
VL: DIQMAQSPSSLSASVGDRVTITCRASQGISSYLNWYQQKPGKAPKLLIYAASSLQSGVPSRFSGSGYGTDFTLTISSLQPEDFATYYCQQSYSTPLTFGQGTKVEIK
Regarding B6, the binding result with Human KLRF1, in the assay with Human KLRF2 and with cynomolgus CD161 [7] was “no binding (tested: 100 nM)” each time.

B7: KM12.4.7 (antibody, V domains shown)
VH: EVQLVESGGGLVQPGGSLRLPCAASGFTFSSYAMSWIRQAPGKGLEWVSAISGSGGSIYYADSVKGRFTISRDNSKNTLYLQMDSLRAEDTAVYYCARGYSDSYFYGPYYTFDYWGQGTLVTVSS
VL: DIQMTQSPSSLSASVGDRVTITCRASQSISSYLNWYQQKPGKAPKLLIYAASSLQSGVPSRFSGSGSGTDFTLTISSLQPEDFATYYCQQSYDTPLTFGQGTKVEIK
For B7, the “fold binding vs HP-3G10” value with human CD161 [1] and with cynomolgus CD161 [2] was around 10 fold each time. For the same molecule, the Kd was 0.0925 nM with human CD161 [3] and 0.225 nM in the assay with cynomolgus CD161 [4]. Besides, the “EC50 (read off the curve)” value in the assay with human CD161 [5] was around 0.09 nM; in the assay with cynomolgus CD161 [6], around 0.2 nM. The binding result in the assay with Human KLRF1 and with Human KLRF2 was “no binding (tested: 100 nM)” in each case.

B8: KW17.3.4 (antibody, V domains shown)
VH: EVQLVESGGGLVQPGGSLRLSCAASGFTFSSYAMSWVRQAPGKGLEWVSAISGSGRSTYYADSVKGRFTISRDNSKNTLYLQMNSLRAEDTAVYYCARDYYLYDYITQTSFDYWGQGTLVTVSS
VL: QSVLTQPPSVSGAPGQRVTISCTGSSSNIGAGYDVHWYQQLPGTAPKLLIYGNSNRPSGVPDRFSGSQSGTSASLAITGLQAEDEADYYCQSYNSGHTVFGGGTQLTVL
For the molecule B8, the binding result with Human KLRF1, with Human KLRF2 and with cynomolgus CD161 [7] was “no binding (tested: 100 nM)” each time.

The term Kd denotes a measure of binding affinity in units of concentration. A lower Kd goes with higher affinity. The term EC50 (read off the curve) denotes the midpoint of the concentration-response curve.
